Experimental data reported in publication PMC4960319.

What was measured:
[1] = biological target: σR (residues 5-227) (Streptomyces coelicolor) (UniProt Q7AKG9); assay: ITC; with zinc (+), RsrA preincubated with 1 mM ZnCl2 and buffer exchanged; direct titration for weaker binding mutants (methods: 10 μM RsrA in the cell, 100 μM σR in the syringe); 35 °C, 50 mM Tris pH 7.5, 100 mM NaCl, 2 mM DTT; single binding site model
[2] = biological target: σ^R (sigma factor SigR) from Streptomyces coelicolor, residues 5-227, tagless (Streptomyces coelicolor) (UniProt Q7AKG9); assay: ITC; RsrA mutants (values in Supplementary Table 1); 35 °C, 50 mM Tris pH 7.5, 100 mM NaCl, 2 mM DTT; direct titration for weaker binding mutants (10 μM RsrA in the cell, 100 μM σ^R in the syringe); RsrA preincubated with ZnCl2 and buffer exchanged where zinc was included

“RsrA* C41S (from UniProt Q7AKG8 4-105) (natural protein)” was tested. Which Kd [1] did it give?
The Kd was 0.557 µM.

For “RsrA Val54Ala Leu57Ala (from UniProt Q7AKG8 1-105) (natural protein)”, which fold weakening of binding to σ^R against RsrA [2] is on record?
Its fold weakening of binding to σ^R against RsrA is over 100 fold.

How did the fold weakening of binding to σ^R against RsrA [2] turn out when “RsrA Val75Ala Leu79Ala (from UniProt Q7AKG8 1-105) (natural protein)” was run?
Its fold weakening of binding to σ^R against RsrA is over 100 fold.
